{
  "source": "paper PMC5741731",
  "key": {"[1]": {"biological_target": "human mesothelin-Fc fusion protein (human)", "sequence (Q13421 other isoform, or with tags, fused parts or gaps)": "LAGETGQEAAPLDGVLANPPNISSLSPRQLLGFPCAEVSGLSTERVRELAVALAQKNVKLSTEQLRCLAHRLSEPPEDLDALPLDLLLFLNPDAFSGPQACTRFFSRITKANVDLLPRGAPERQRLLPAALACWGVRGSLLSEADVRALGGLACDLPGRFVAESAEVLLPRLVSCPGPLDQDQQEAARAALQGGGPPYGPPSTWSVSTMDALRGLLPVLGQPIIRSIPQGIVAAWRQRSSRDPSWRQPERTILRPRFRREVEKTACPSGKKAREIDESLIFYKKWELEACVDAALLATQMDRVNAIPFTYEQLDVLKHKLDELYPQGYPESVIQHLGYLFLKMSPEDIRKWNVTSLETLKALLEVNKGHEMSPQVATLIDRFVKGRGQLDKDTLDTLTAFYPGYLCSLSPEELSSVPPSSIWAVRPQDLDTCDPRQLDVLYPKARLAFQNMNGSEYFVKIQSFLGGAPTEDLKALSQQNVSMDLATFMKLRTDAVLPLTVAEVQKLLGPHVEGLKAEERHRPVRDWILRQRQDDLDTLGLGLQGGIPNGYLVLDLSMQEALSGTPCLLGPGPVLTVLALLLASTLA"}, "[2]": {"biological_target": "human mesothelin-Fc fusion protein (human)", "assay": "SPR; Biacore T200; human mesothelin-Fc captured via amine-coupled anti-human IgG (Fc) antibody on a CM5 chip; CA-125-His-Avi and anti-mesothelin Fab injected consecutively and conversely (dual injects, 120 s contact each); PBS with 0.05% Tween 20, dilution with 1 mg/ml BSA; 25 °C"}},
  "data": [
    {"substance": "CA-125-HisAvi (recombinant CA-125, extracellular portion) (domain or fragment)", "values": [
      {"measurement": "the same heterotypic cell adhesion after pre-incubation of the NCI-H358-MSLN clones with RG7787 Fab: no NCI-H358 cells recovered for clones 4D8, 4H3 and 1G2; clone 2C5 only partly blocked", "setting": "[1]", "value": 10, "unit": "%"},
      {"measurement": "occupancy of mesothelin at maximal saturation", "setting": "[2]", "value": 70, "unit": "%"}
    ]}
  ]
}
